The text below walks through data of patent publication US20230192797A1 (published 2023).

The target of assay [1] is T1, PD-L1 on the surface of CHO-PD-L1 cells (UniProt Q9NZQ7 19-290, limits assumed). The assay can be described thus: cell-based or functional assay.
Assay [2] deals with T1, PD-L1 on the surface of CHO-PD-L1 cells. The assay can be described thus: flow cytometry (FACS) on CHO-PD-L1 cells, anti-human IgG PE detection. (In general: A flow cytometer gives signals particle by particle.)
Assay [3] deals with T2, recombinant human PD-L1-His protein (Novoprotein, Cat. 315) (human, UniProt Q9NZQ7 19-239).
T2 construct: Bought reagent; also called human PD-L1 recombinant protein; not shown: His tag
As to the kind of experiment: SPR (Biacore T200), antibody captured on the chip, PD-L1-His injected, 1:1 model, 25 C. Background: SPR reads the build-up and loss of mass on a sensor chip optically.

For assay [4], the target named is T3, cynomolgus monkey PD-L1-His protein (Sino Biological, Cat. 90251-C08H) (cynomolgus monkey, UniProt G7PSE7 19-239).
T3 construct: Bought reagent; also called cynomolgus PD-L1 recombinant protein; not shown: His tag
The assay is described as above.

The target of assay [5] is T4, Human PD-L1 recombinant protein (Sino Biological, Cat.10084-H05H) (human, UniProt Q9NZQ7 19-239).
T4 construct: also called human PD-L1 protein; PD-L1 protein
The assay can be described thus: competitive ELISA: human PD-L1 coated, antibody titrated against human PD-1-His (competitor), anti-His-HRP detection. The procedure:
Human PD-L1 recombinant protein (Sino Biological, Cat.10084-H05H) was diluted with carbonate buffer and added to 96-well ELISA plate at a final concentration of 1 μg/ml. […] The competitive binding curve of the tested antibody could be drawn by matching the antibody concentration to the OD value, and the IC50 value could be calculated.
For orientation: In an ELISA, binding on a coated surface is turned into a signal by an enzyme label.

T1 sequence (Q9NZQ7 19-290 limits assumed): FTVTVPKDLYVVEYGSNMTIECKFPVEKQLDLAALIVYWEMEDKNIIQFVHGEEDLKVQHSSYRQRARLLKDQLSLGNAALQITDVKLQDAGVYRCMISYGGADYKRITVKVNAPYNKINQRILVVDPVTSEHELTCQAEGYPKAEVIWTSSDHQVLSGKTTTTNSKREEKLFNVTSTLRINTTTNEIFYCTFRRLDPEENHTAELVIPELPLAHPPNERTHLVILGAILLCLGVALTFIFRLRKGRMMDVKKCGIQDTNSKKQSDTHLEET
T3 sequence (G7PSE7 entry or part of it C08H C08H): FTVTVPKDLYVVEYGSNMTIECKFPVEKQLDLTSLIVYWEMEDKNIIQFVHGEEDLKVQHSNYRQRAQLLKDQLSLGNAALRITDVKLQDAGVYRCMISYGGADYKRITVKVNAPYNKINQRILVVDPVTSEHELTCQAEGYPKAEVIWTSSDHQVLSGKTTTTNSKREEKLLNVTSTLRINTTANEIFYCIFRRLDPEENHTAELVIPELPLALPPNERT
T2 sequence (Q9NZQ7 19-239 limits assumed): as the sequence (G7PSE7 entry or part of it C08H C08H) above, with T33A, S34A, N62S, Q68R, R82Q, L173F, A185T, I192T, L215H counted along it
T4 sequence (Q9NZQ7 19-239 limits assumed): as the sequence (G7PSE7 entry or part of it C08H C08H) above, with T33A, S34A, N62S, Q68R, R82Q, L173F, A185T, I192T, L215H counted along it

B1: 794-h1-71 (antibody, human IgG1, kappa, V domains shown)
VH: QVQLQQSGPGLVKPSQTLSLTCAVSGDSITSGYWNWIRKFPSRGLEYMGYISYSGSTYYNPFLKSRISINRDTSKNQYYLQLNSVTPEDTAVYYCAKMGDWLAWFAYWGQGTLVTVSS
VL: EIVMTQSPPTLSLSPGERVTLSCKSSQSLLYSSNQKNSLAWYQQKPGQAPRLLIYWASTRESGIPARFSGSGSGTDFTLTISSLQPEDFAVYYCQQYYGYPYTFGQGTKLEIKR
notes: also called humanized PD-L1 antibody
The term EC50 denotes the concentration needed to bring the measured effect to its halfway point. What is called Kd is the free concentration of one partner at which half of the binding sites on the other are occupied at equilibrium, for simple one-to-one binding. What is called IC50 is the concentration needed to halve the response being measured. For the molecule B1, the “EC50 of NFAT-controlled luminescent reporter signal (RLU), Jurkat-PD-1 cells co-incubated with CHO-PD-L1 cells” value in assay [1] came out at 0.166 µg/mL. The same molecule gave an EC50 in assay [2] of 0.0384 µg/mL. Besides, the results for the Kd in assay [3] and in assay [4] were 1.79 nM and 0.937 nM, respectively. In assay [5], the concentration for half-maximal inhibition (IC50) stood at 0.849 nM.
